Measured values: patent US20230399394A1 (SUNSHINE GUOJIAN PHARMACEUTICAL SHANGHAI, published 2023)
Changes are numbered by the printed parent chain. In names and notes the source's numbering stands.

T1: Human IL-33-his (human, UniProt O95760 112-270, biotinylated with EZ-Link NHS-Biotin where used as IL-33-his-biotin)
T1 construct: Used plain (SPR, cell assays) and biotinylated (ELISA); also called IL-33-his-biotin
T1 sequence: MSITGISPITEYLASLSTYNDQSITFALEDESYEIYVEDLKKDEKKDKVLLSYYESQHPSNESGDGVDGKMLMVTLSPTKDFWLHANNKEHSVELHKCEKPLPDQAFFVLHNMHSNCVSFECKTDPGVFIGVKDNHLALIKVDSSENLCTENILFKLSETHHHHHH

B1: 871G1-Hu1 (antibody, human IgG4 S228P, kappa, V domains shown)
VH: QVQLQESGPGLVKPSETLSLTCTVSGFSLSKYGVHWIRQPPGKGLEWIGVLRAGGTISYNSALMSRVTISEDISKSQVSLKLSSVTAADTAVYYCARDHYYYSSFGGFASWGQGTLVTVSS
VL: DIQMTQSPSSVSASVGDRVTITCLASQTIGAWLAWYQQKPGKSPKLLIYAATRLADGVPSRFSGSGSGTDFTLTISSLQPEDFATYYCQQLNSTPYTFGQGTKVEIKR
notes: Humanized; also called humanized antibody 871G1-Hu1
B2: 864F3-Hu1 (antibody, human IgG4 S228P, kappa, V domains shown)
VH: QVQLQESGPGLVKPSETLSLTCTVSGFSLTNYGVHWIRLPPGKGLEWIGVIRAGGSSDYNSALMSRVTISKDNSKSQVSLKLSSVTAADTAVYYCARDHYFSNSYGGSPYWGQGTLVTVSS
VL: B1 VL with V11L, G30A, A31T, N92Y, S93N
notes: Humanized; also called humanized antibody 864F3-Hu1
B3: 874F7-Hu2 (antibody, human IgG4 S228P, kappa, V domains shown)
VH: QVQLQESGPGLVKPSETLSLTCTVSGFSLSKYGVHWIRQPPGKGLEWLGVLRAGGSTGYNSALMSRLTISKDSSKSQVSLKLSSVTAADTAVYYCVRDHYYYSSYGGFVYWGQGTLVTVSS
VL: B1 VL with N92D, T94S
notes: Humanized; also called humanized antibody 874F7-Hu2
B4: 871G1-Hu2 (antibody, human IgG4 S228P, kappa, V domains shown)
VH: B1 VH with I48L, V67L
VL: B1 VL
notes: Humanized; also called humanized antibody 871G1-Hu2
B5: 864F3-Hu3 (antibody, human IgG4 S228P, kappa, V domains shown)
VH: B1 VH with E71V, I73T, S76N, V78F
VL: B1 VL with V11L, G30A, A31T, N92Y, S93N
notes: Humanized; also called humanized antibody 864F3-Hu3
B6: 864F3-Hu5 (antibody, human IgG4 S228P, kappa, V domains shown)
VH: B1 VH with I48L, V67L
VL: B1 VL with V11L, G30A, A31T, N92Y, S93N
notes: Humanized; also called humanized antibody 864F3-Hu5
B7: 864F3-HuG (antibody, human IgG4 S228P, kappa, V domains shown)
VH: B2 VH with L39Q, K71V, N73T, S76N, V78F
VL: B1 VL with V11L, G30A, A31T, N92Y, S93N
notes: Humanized; also called humanized antibody 864F3-HuG
B8: 874F7-HuG (antibody, human IgG4 S228P, kappa, V domains shown)
VH: B3 VH with L48I, L67V, K71V, S73T, S76N, V78F, V96A
VL: B1 VL with N92D, T94S
notes: Humanized; also called 874F7-Hµg; humanized antibody 874F7-HuG
B9: 864F3-Hu2 (antibody, human IgG4 S228P, kappa, V domains shown)
VH: B2 VH with I37V, I48L, V67L
VL: B1 VL with V11L, G30A, A31T, N92Y, S93N
notes: Humanized; also called humanized antibody 864F3-Hu2
B10: 871G1-HuG (antibody, human IgG4 S228P, kappa, V domains shown)
VH: B1 VH with E71V, I73T, S76N, V78F
VL: B1 VL
notes: Humanized; also called humanized antibody 871G1-HuG
B11: 871G1-ch (antibody, human IgG4 S228P, kappa, V domains shown)
VH: QVHLKESGPGLVAPSQSLSITCNVSGFSLSKYGVHWIRQTPGRGLDWLGVLRAGGTISYNSALMSRLSISEDISKSQVFLKMNDLQTDDSAIYFCARDHYYYSSFGGFASWGQGTLVTVSA
VL: DIQMTQSPASQSASLGESVTITCLASQTIGAWLAWYRQQPGKSPQLLIYAATRLADGVPSRFSGSGSGTKFSFKINNLQAEDFVIYYCQQLNSTPYTFGGGTRLEMRT
notes: Chimeric: human IgG4 (S228P) and human kappa constant regions; also called chimeric antibody 871G1-ch
B12: 874F7-ch (antibody, human IgG4 S228P, kappa, V domains shown)
VH: QVQLKESGPGLVAPSHSLSITCNVSGFSLSKYGVHWIRQIPGRGLDWLGVLRAGGSTGYNSALMSRLSISKDSSKSQVFLKMNDLRTDDTAVYFCVRDHYYYSSYGGFVYWGQGTLVTVSA
VL: B11 VL with K70E, I85S, N92D, T94S
notes: Chimeric: human IgG4 (S228P) and human kappa constant regions; also called chimeric antibody 874F7-ch

These binders were tested against T1, Human IL-33-his (assay: ELISA as Example 9, IL-33-his-biotin on streptavidin plate).
Binder B1 has an EC50 of 0.191 nM. In the case of B2, the EC50 is reported as 0.249 nM. With B3 the EC50 was 0.136 nM. For B4, the EC50 was 0.176 nM. For B5, the EC50 was 0.138 nM. Binder B6 has an EC50 of 0.146 nM. B7 gave an EC50 of 0.76 nM. Work on B8 yielded an EC50 of 0.17 nM. B9 was tested, and the EC50 was 0.181 nM. Work on B10 yielded an EC50 of 0.187 nM. B11 was tested, and the EC50 was 0.255 nM. For B12, the EC50 was 0.177 nM.

The binders below were run against T1, Human IL-33-his (assay: competition ELISA, antibody mixed with IL-33-his-biotin, ST2-Fc on plate; competitor ST2-Fc).
Procedure: (§1) ST2-Fc protein was diluted to 1 μg/mL with ELISA coating solution to coat ELISA plate with 100 μL/well. The plate was placed in a wet box at 4° C. for 16 h for coating. The ELISA plate was washed 3 times with PBST, and then was blocked with 2% BSA prepared in PBS at 200 μL/well at room temperature for 2 h. The plate was washed once with PBST, and was patted dry to remove the excess blocking solution. Each monoclonal antibody was diluted with 1% BSA prepared in PBST in a 3-fold gradient. The highest concentration of antibody was 10 μg/mL, and the antibody was diluted for 11 gradients. The diluted antibody was mixed 1:1 with 10 ng/ml IL-33-his-biotin, and then the mixture was added into the ELISA well at 100 μL/well. The plate was incubated at room temperature for 1 h. Each concentration was added to duplicate wells in parallel (maximum final concentration of antibody was […], final concentration of IL-33-his-biotin was 5 ng/mL). Unbound or non-specifically bound primary antibodies were washed out. According to the instructions of the antibody, HRP labeled streptavidin secondary antibody was diluted to an appropriate concentration with antibody diluent solution, then it was added to ELISA plate with 100 μL/well, and was incubated at room temperature for 1 h. The ELISA plate was washed with PBST for 5 times, and was patted dry on absorbent paper to remove excess liquid. TMB developing solution was added with 100 μL/well for development to an appropriate degree. 2M H₂SO₄ was added with 70 μL/well to terminate development, and the absorbance was measured at 450 nm on a multifunctional microplate reader. The data were analyzed.
B11 gave an IC50 of 0.853 nM. In the case of B12, the IC50 is reported as 0.634 nM.

What follows are binders tested against T1, Human IL-33-his (assay: SPR Biacore 8K, antibody captured on Protein A/G chip, IL-33-his as analyte, 1:1 model).
Procedure: A chip with covalently coupled Protein A/G (purchased from GE Healthcare, catalog number BR-1005-30) was used to capture each antibody to be tested, and the relevant operating parameters were as follows: The antibody concentration was […], the contact time was 75 s, the flow rate was […], and the regeneration contact time was 30 s. The IL-33-his antigen was diluted with HBS-EP pH7.4 buffer solution (purchased from GE Healthcare, catalog number BR-1006-69). The maximum concentration was 50 nM, and diluted to 0.39 nM by two-fold dilution. Duplicate wells and 0 concentration point well were set, and 6M guanidine hydrochloride solution was used as the regeneration buffer. The sample was injected on Biacore 8K according to the following parameters, the binding time was 180 s, the dissociation time was 900 s, the flow rate was 30 μL/min, and the regeneration contact time was 30 s. After running, Biacore 8K Evaluation Software was used to analyze the data according to the “1:1 binding kinetics model”, and the binding kinetics parameters of each antibody to IL-33 were obtained.
Binder B1 has a Kd of 1.71 nM, a koff of 0.000504 s⁻¹ and a kon of 295000 M⁻¹ s⁻¹. In the case of B3, the Kd is reported as 2.97 nM, the koff is reported as 0.000576 s⁻¹ and the kon is reported as 194000 M⁻¹ s⁻¹. In the case of B4, the Kd is reported as 1.76 nM, the koff is reported as 0.000527 s⁻¹ and the kon is reported as 300000 M⁻¹ s⁻¹. B6 was tested, and the Kd was 1.36 nM, the koff was 0.000439 s⁻¹ and the kon was 323000 M⁻¹ s⁻¹.

The binders below were run against T1, Human IL-33-his (assay: competition ELISA as Example 10, ST2-Fc on plate; competitor ST2-Fc).
Procedure: as §1
The blocking effect of the above humanized antibodies on the binding of IL-33 to its receptor ST2 was determined by the ELISA method, and the relevant experimental methods were referred to Example 10.
B1 was tested, and the IC50 was 0.404 nM. B3 was tested, and the IC50 was 0.35 nM. With B4 the IC50 was 0.361 nM. With B6 the IC50 was 0.473 nM.

What follows are binders tested against T1, Human IL-33-his (assay: ELISA, IL-33-his-biotin on streptavidin plate, anti-human Fc detection).
Procedure: SA protein was diluted to 2 μg/mL to coat ELISA plate at 100 μL/well overnight at 4° C. The plate was washed with PBST (PBS containing 0.05% Tween20) for 3 times, and blocked with 2% BSA prepared in PBS at 200 μL/well, at room temperature for 2 h. After the plate was washed twice with PBST, IL-33-his-biotin protein was diluted to 1 μg/mL with 1% BSA prepared in PBST, and was added to ELISA plate at 100 μL/well. The plate was incubated at room temperature for 1 h, and each monoclonal antibody was diluted with 1% BSA prepared in PBST in a 3-fold gradient. The highest concentration of antibody was 10 μg/mL, and the antibody was diluted for 12 gradients. Each diluted monoclonal antibody was added to ELISA wells with 100 μL/well, and the plate was incubated at room temperature for 1 h. Each sample was added to duplicate wells in parallel. The plate was washed with PBST for 3 times, and HRP-anti human IgG Fc secondary antibody prepared with PBST was diluted at an appropriate ratio, and was added to ELISA wells at 100 μL/well. The plate was incubated at room temperature for 1 h. After washing with PBST for 3 times, TMB developing solution was added at 100 μL/well. When the development met expectations, 2M H₂SO₄ was added to terminate the chromogenic reaction at 70 μL/well. Each reaction solution was shaken uniformly and OD450 nm was read on a microplate reader. The data was analyzed and EC₅₀ was calculated.
Work on B11 yielded an EC50 of 0.178 nM. Binder B12 has an EC50 of 0.144 nM.

The binders below were run against T1, Human IL-33-his (assay: cell-based or functional assay).
With B1 the “IC50 of inhibition of IFNγ secretion by NK cells induced by IL-33” value (from here on “IC50 of inhibition of IFNγ secretion”) was 0.851 nM, the “IC50 of the inhibitory effect on IL-6 expression in HUVEC cells induced by IL-33” value was 0.21 nM and the “IC50 of the inhibitory effect on the IFN-γ secretion of PBMC induced by IL-33” value was 1.4 nM. With B3 the “IC50 of inhibition of IFNγ secretion” value was 1.56 nM, the “IC50 of the inhibitory effect on IL-6 expression in HUVEC cells induced by IL-33” value was 0.05 nM and the “IC50 of the inhibitory effect on the IFN-γ secretion of PBMC induced by IL-33” value was 1.74 nM. For B4, the “IC50 of inhibition of IFNγ secretion” value was 0.9 nM, the “IC50 of the inhibitory effect on IL-6 expression in HUVEC cells induced by IL-33” value was 0.175 nM and the “IC50 of the inhibitory effect on the IFN-γ secretion of PBMC induced by IL-33” value was 1.06 nM. In the case of B6, the “IC50 of inhibition of IFNγ secretion” value is reported as 1.02 nM, the “IC50 of the inhibitory effect on IL-6 expression in HUVEC cells induced by IL-33” value is reported as 0.147 nM and the “IC50 of the inhibitory effect on the IFN-γ secretion of PBMC induced by IL-33” value is reported as 0.839 nM.
